According to article doi:10.1101/2020.02.14.949818 (bioRxiv, 2020):

B1: mouse FUT8 (MmFUT8_(68-575)) (domain or fragment)
chain: RIPEGPIDQGTATGRVRVLEEQLVKAKEQIENYKKQARNGLGKDHEILRRRIENGAKELWFFLQSELKKLKHLEGNELQRHADEILLDLGHHERSIMTDLYYLSQTDGAGDWREKEAKDLTELVQRRITYLQNPKDCSKARKLVCNINKGCGYGCQLHHVVYCFMIAYGTQRTLILESQNWRYATGGWETVFRPVSETCTDRSGLSTGHWSGEVNDKNIQVVELPIVDSLHPRPPYLPLAVPEDLADRLLRVHGDPAVWWVSQFVKYLIRPQPWLEKEIEEATKKLGFKHPVIGVHVRRTDKVGTEAAFHPIEEYMVHVEEHFQLLARRMQVDKKRVYLATDDPTLLKEAKTKYSNYEFISDNSISWSAGLHNRYTENSLRGVILDIHFLSQADFLVCTFSSQVCRVAYEIMQTLHPDASANFHSLDDIYYFGGQNAHNQIAVYPHKPRTEEEIPMEPGDIIGVAGNHWDGYSKGINRKLGKTGLYPSYKVREKIETVKYPTYPEAEK
B2: truncated human FUT8 (HsFUT8_(105-575)) (domain or fragment)
chain: RNGLGKDHEILRRRIENGAKELWFFLQSELKKLKNLEGNELQRHADEFLLDLGHHERSIMTDLYYLSQTDGAGDWREKEAKDLTELVQRRITYLQNPKDCSKAKKLVCNINKGCGYGCQLHHVVYCFMIAYGTQRTLILESQNWRYATGGWETVFRPVSETCTDRSGISTGHWSGEVKDKNVQVVELPIVDSLHPRPPYLPLAVPEDLADRLVRVHGDPAVWWVSQFVKYLIRPQPWLEKEIEEATKKLGFKHPVIGVHVRRTDKVGTEAAFHPIEEYMVHVEEHFQLLARRMQVDKKRVYLATDDPSLLKEAKTKYPNYEFISDNSISWSAGLHNRYTENSLRGVILDIHFLSQADFLVCTFSSQVCRVAYEIMQTLHPDASANFHSLDDIYYFGGQNAHNQIAIYAHQPRTADEIPMEPGDIIGVAGNHWDGYSKGVNRKLGRTGLYPSYKVREKIETVKYPTYPEAEK

What was measured:
crystal structure = biological target: the molecule itself; assay: crystal structure
SEC-SAXS = biological target: the molecule itself; assay: SEC-SAXS

Row | Protein | binding result (crystal structure) | stoichiometry N (SEC-SAXS)
1 | B1 | binds | 
2 | B2 |  | 2
